Experiments:
Experiment in all cases: other fluorescence titration; intrinsic Trp fluorescence quenching, plate-based (96-well), 0-750 µM peptide added to 8 µM enzyme.Ni(II) (1:2), anaerobic preparation, 10 min at 25 °C, 50 mM Tris pH 7.5, 0.4 M NaCl; λex/λem 280/350 nm; fit to one-site specific binding with or without Hill slope
Conditions in all cases: both partners purified
[1] = biological target: T1, AtRAP2.12_(2-15) 14-mer peptide (Arabidopsis thaliana, UniProt Q9SSA8 2-15)
T1 construct: RELATED TO AP-2.12 (RAP2.12), Arabidopsis thaliana ERFVII, Cys-initiating residues 2-15; also called RAP2_(2-15); source: synthetic peptide (GL Biochem, China)

[2] = biological target: T2, AtZPR2_(2-15) 14-mer peptide (Arabidopsis thaliana, UniProt Q9LZX5 2-15)
T2 construct: Little Zipper 2 (ZPR2), Arabidopsis thaliana, Cys-initiating residues 2-15; source: synthetic peptide (GL Biochem, China)

[3] = biological target: T3, AtVRN2_(2-15) 14-mer peptide (Arabidopsis thaliana, UniProt Q8W5B1 2-15)
T3 construct: Polycomb group protein Vernalisation 2 (VRN2), Arabidopsis thaliana, Cys-initiating residues 2-15; source: synthetic peptide (GL Biochem, China)

[4] = biological target: T4, AtHRE1_(2-15) 14-mer peptide (Arabidopsis thaliana, UniProt Q8H0T5 2-15)
T4 construct: HRE1, Arabidopsis thaliana ERFVII, Cys-initiating residues 2-15; source: synthetic peptide (GL Biochem, China)

B1: Arabidopsis thaliana Plant Cysteine Oxidase 5, Ni(II)-substituted (AtPCO5.Ni(II)) (enzyme)
chain: not shown
notes: Plant Cysteine Oxidase 5 (AtPCO5), Arabidopsis thaliana; Active-site Fe(II) removed and replaced with Ni(II) (enzyme:metal 1:2)
Kd [1]: 258 ± 14.3 µM
Kd [2]: 692 ± 513 µM
Kd [3]: 107 ± 29.7 µM
Kd [4]: 223 ± 10.3 µM

Source: article PMC11685595 (Scientific Reports, 2024)
